B1: TPR t1 (parent)
chain: GACCAAUCUGCCCUCAGAGCUCGAGAACAUCUUCGGAUGCAGAGGAGGCAGGCUUCGGUGGCGCGAUAGCGCCAACGUCCUCAACCUCCAAUGCAUCCCACCACAUGAUGAUGCCUGAAGAGCCUUGGUUUUUUG

Variants of: B1
Test: polymerase ribozyme fitness, log enrichment relative to wild type (log ratio); higher = more active; in vitro selection for triplet polymerase activity
How it was run: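 Only genotypes with ≥10 input reads and ≥1 read per output were kept after Illumina sequencing of input and output libraries. These libraries were PCR-built, transcribed mutants of each subunit of a heterodimeric triplet polymerase ribozyme, each put through one triplicate in vitro selection round with frozen incubation at −7 °C, gel excision of extended constructs, streptavidin-bead capture and RT-PCR. Fitness is a logarithmic ratio of genotype enrichment to wild-type enrichment, from inverse-variance-weighted replicate averages, with the logarithm in base 2.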

| Variant | polymerase ribozyme fitness (log ratio) |
| --- | --- |
| A91G A100C | -2.5 |
| U7G G93C | -0.742 |
| G63A U116C G127U U133A | -5.28 |
| A27G A46U G77U U78A | -3.31 |
| U32C C40G G57U G117C G120A | -6.56 |
| G42A G45U C101A | -4.7 |
| C13U A41G C49A G52U | -1.15 |
| G51A C62U C124U | -1.17 |
| G42A G44C C56G G135U | -3.31 |
| C4G G110A | -2.16 |
| U59A A75U C86A C115G U116A G117A | -5.94 |
| G60A C104A G113U | -5.38 |
| C56G G93U | -2.19 |
| C49A C72U G77U C115A | -1.36 |
| C8A G93A | -0.248 |
| A68U C115A G120C | -7.66 |
| G61U C104U U116A | -2.46 |
| C80U | -0.463 |
| G117C U131G | -4.4 |
| A43U C56G C79G | -4.99 |
| A41U A43C C79U C80U C124U | -4.76 |
| G39U G113U | -3.59 |
| C8G C13G U54C | 0.758 |
| U21G | -0.965 |

| Variant | polymerase ribozyme fitness (log ratio) |
| --- | --- |
| C4U C49U U78A | -1.36 |
| U21C C62U A84C | -0.909 |
| A6G C12U A43C U54C C56U A66G C72U C73A | -6.56 |
| A2C C4U C13A C49A C56A G71A U87A | -6.32 |
| G19A G93U | -4.24 |
| C11A G69U C97A C101A C104A | -3.94 |
| U38C A46U A100C | -4.28 |
| U38G C80U | -1.64 |
| G10C G47U C89U | -5.13 |
| C13G C40A C123U | -0.0334 |
| C12U U21A G35A | -4.8 |
| C31U G110A | -4.35 |
| A50C G57U G113U | -4.25 |
| A6U C86U C89G | -1.63 |
| G51A U55G A66U U112A | -6.46 |
| A18C C53G G60U U116G | -2.87 |
| A50U C56U A83C | -1.21 |
| C49U G51U | -5.95 |
| C20A G57C | -3.31 |
| G58C U67C A100U G120C | -6.28 |
| C12U G63C C82U A103C | -6.59 |
| C34U C79U U130C | -5.4 |
| C86A C124A | 1.35 |
| C104A G117A | -2.41 |

| Variant | polymerase ribozyme fitness (log ratio) |
| --- | --- |
| A75G C94A | -0.695 |
| U14G C82U G93C | -2.71 |
| C34U C56A G71C U112A | -6.49 |
| G47A C85A | -2.48 |
| C3G A29U C49A G57U A121G | -2.13 |
| U7G C114U G127A | -1.17 |
| C94G U130A G135U | -1.4 |
| G39A G69U C99A | -4.04 |
| C53U G122A | -0.631 |
| G61A G120U | 0.215 |
| A18U G52A C72A C73A U112A | -3.87 |
| C12A C73A | 1.15 |
| A41U C49U C88A A121U | -0.675 |
| A41C C70A U78C G128U U131C | -4.08 |
| C73U C85U | -0.444 |
| A24G A46U C72G G93C G120U C124U | -5.77 |
| C4G C72G | -1.74 |
| C40U | -0.543 |
| A18C G44U | -3.35 |
| G51U C94G | -4.19 |
| G45A U55C C62A C89G | -3.49 |
| C28U C124U | -0.485 |
| C15A U32C | -1.58 |
| C70A U129A | -3.27 |

| Variant | polymerase ribozyme fitness (log ratio) |
| --- | --- |
| G52U G120C | -0.122 |
| A50U U131A | -0.622 |
| C72G C86A G93C C104G A108U U109G A118G | -6.21 |
| U21G C102A | -2.91 |
| C22G A41U G63U U78C C99G | -6.66 |
| C12G U14C G45A A68G U106A | -4.06 |
| U55A G93A A121U | 1.57 |
| A95G U112A A119U | 0.842 |
| U30C G71U U87C | -4.19 |
| A26C A43C A46C C56G C86A A90G C123G | -6.74 |
| C22A C49U C56A U78C G117U | -5.8 |
| U92A U112C A121C | -0.365 |
| C70U C76A A121U U125G | -0.883 |
| C70A C73U A111C | -2.13 |
| G60U C86U | -1.37 |
| A43U G71U | -1.89 |
| G45U C64U A121G G135A | 0.974 |
| A43U C97A | -7.59 |
| G10U C98A C123A | -4.36 |
| A43G C72U C94G C101U U116G | -4.87 |
| U9A C86A C98U | -0.22 |
| G39U C49A G71U G127A | -2.56 |
| A27G G57C G122A U132C | -3.07 |
| G25A A121U | -2.9 |

| Variant | polymerase ribozyme fitness (log ratio) |
| --- | --- |
| A37G G39A C86G | -3.13 |
| A6G C31A G42U C53U A95U C101U C114U U126A | -5.71 |
| G57U G71A C104A U106C U125A U131C | -3.71 |
| A6U A29G G44A C82A | -2.51 |
| A37C G61U C73U | -1.35 |
| C3U G47A G61A A84C | -0.617 |
| A74C G93A | -0.578 |
| A43U U96C C101A G122A G127A | -5.79 |
| A2U U54A C72A C101G U129A U130A | -2.15 |
| U55A U81A G107U A111U | -4.76 |
| G42A G71U U130G | -4.16 |
| C22A C82A C89A A111G | -6.04 |
| U38G C97U | -4.33 |
| C104A | -1.45 |
| C49U G71C | -2.01 |
| C49G C56U | -0.51 |
| G47C G61A G69A A111C U116A | -6.11 |
| C15A G71A A91G U112A G113C | -5.47 |
| G39U G44C C72U | -1.9 |
| C34A A46U A75G C102U A111G | -3.22 |
| C13G G71A | -2.22 |
| C11G G120A | 1.51 |
| C13U A29U C56A G65A G77A | -6.34 |
| C12U G69C C73U U129G | -3.42 |

| Variant | polymerase ribozyme fitness (log ratio) |
| --- | --- |
| C20U A100U G120U | -1.89 |
| U54G U116A | -3.36 |
| C64U A83C A100C C101G U129G | -3.82 |
| A26G G69U | -2.23 |
| A24C G63A | -6.87 |
| G71A G120C | 0.139 |
| A5U G10U G45C G51A A118U G120A | -2.81 |
| C3U C8G G48U G93U | -0.42 |
| C72U C86A | -0.584 |
| G36C A50C C114U | -6.09 |
| U7C C97U C114A | -1.45 |
| C4A C70G C79A C114U | -5.9 |
| G48A G71C U96C | -1.75 |
| A5C C8G A37U U38C A43C G57A G110A C124U | -5.51 |
| C3U C11G A24G C40U C62G | -3.32 |
| A29G C72G C80G A105C C123G | -7.14 |
| G36C G110A | -1.62 |
| G10A A16C A50G A95C | -3.07 |
| U7G U59G C62U A84C A90U A111U C115A | -5.26 |
| C12A C62G U133G | -1.75 |
| C49G G51U | -3.2 |
| C11A C64U U78C C80U A83G | -4.97 |
| G44C G60U | -0.287 |
| U21G C73G A83G | -3.58 |

| Variant | polymerase ribozyme fitness (log ratio) |
| --- | --- |
| C72G C86G U92A A111G G128U U132C | -6.17 |
| A2U G51C G69A A121G U132C | -6.81 |
| U38C G63C C102U | -3.7 |
| U78C C101A | -0.679 |
| U9G C62A U92A C104U | -4.41 |
| C3A A74C | -2.99 |
| C3U G45U G60U A91G C123U | -2.3 |
| G63U U87A C114A | -3.29 |
| C28A C73A | -4.02 |
| C72U G117C | -2.69 |
| C49G A90C | -3.22 |
| U87A G93A | -0.908 |
| G61A A111G | 0.971 |
| U32C C72G G117U U134G | -1.41 |
| G48U C56G C101U C114G | -4.75 |
| A29U C72U A84C U87C U112C | -1.31 |
| A18G G61U C94G G113U | -3.32 |
| G48C G51C G57U | -2.77 |
| U7C C13U G60A A105U | -1.71 |
| U112G G113A U125C | -2.43 |
| G61U G77A U130G | -0.935 |
| G45U C101A C102U | -5.42 |
| C4U G42A G45U G47A | -4.19 |
